Measured values as given in patent publication US12514920B1, “Respiratory syncytial virus mRNA vaccine, and preparation method therefor and use thereof” (Hangzhou Tianlong Pharmaceutical Co., Ltd., priority 2024, dated 2026).

B1: YK-RSV-031 (protein)
chain: QNITEECYQSTCSAVSKGYLGALRTGWYTSVITIELSNIKENKCNGTDAKVKLIKQELDKYKNAVTDLQLLMQSTPATGSGSAIASGVAVSKVLHLEGEVNKIKSALLSTNKAVVSLSNGVSVLTFKVLDLKNYIDKQLLPILNKQSCSIPNIETVIEFQQKNNRLLEITREFSVNAGVTTPVSTYMLTNSELLSLINDMPITNDQKKLMSNNVQIVRQQSYSIMSIIKEEVLAYVVQLPLYGVIDTPCWKLHTSPLCTTNTKEGSNICLTRTDRGWYCDNAGSVSFFPQAETCKVQSNRVFCDTMNSRTLPSEVNLCNVDIFNPKYDCKIMTSKTDVSSSVITSLGAIVSCYGKTKCTASNKNRGIIKTFSNGCDYVSNKGVDTVSVGNTLYYVNKQEGQSLCVKGEPIINFYDPLVFPSDEFDASISQVNEKINQSLAFIRKSDELLHNVNAGKSTTNIMITTIIIVIIVILLSLIAVGLLLY
B2: YK-RSV-042 (protein)
chain: QNITEEFYQSTCSAVSKGCLGALRTGWYTSVITIELSNIKENKCNGTDAKVKLIKQELDKYKNAVTDLQLLMQSTPATGSGSAIASGVAVSKVLHLEGEVNKIKSALLSTNKAVVSLSNGVSVLTFKVLDLKNYIDKQLLPILNKQSCSIPNIETVIEFQQKNNRLLEITREFSVNAGVTTPVSTYMLTNSELLSLINDMPITNDQKKLMSNNVQIVRQQSYSIMSIIKEEVLAYVVQLPLYGVIDTPCWKLHTCPLCTTNTKEGSNICLTRTDRGWYCDNAGSVSFFPQAETCKVQSNRVFCDTMNSRTLPSEVNLCNVDIFNPKYDCKIMTSKTDVSSSVITSLGAIVSCYGKTKCTASNKNRGIIKTFSNGCDYVSNKGVDTVSVGNTLYYVNKQEGQSLYVKGEPIINFYDPLVFPSDEFDASISQVNEKINQSLAFIRKSDELLHNVNAGKSTTNIMITTIIIVIIVILLSLIAVGLLLY
B3: YK-RSV-041 (protein)
chain: QNITEEFYQSTCSAVCKGYLGALRTGWYTSVITIELSNIKENKCNGTDAKVKLIKQELDKYKNAVTDLQLLMQSTPATGSGSAIASGVAVSKVLHLEGEVNKIKSALLSTNKAVVSLSNGVSVLTFKVLDLKNYIDKQLLPILNKQSCSIPNIETVIEFQQKNNRLLEITREFSVNAGVTTPVSTYMLTNSELLSLINDMPITNDQKKLMSNNVQIVRQQSYSIMSIIKEEVLAYVVQLPLYGVIDTPCWKLHTCPLCTTNTKEGSNICLTRTDRGWYCDNAGSVSFFPQAETCKVQSNRVFCDTMNSRTLPSEVNLCNVDIFNPKYDCKIMTSKTDVSSSVITSLGAIVSCYGKTKCTASNKNRGIIKTFSNGCDYVSNKGVDTVSVGNTLYYVNKQEGQSLYVKGEPIINFYDPLVFPSDEFDASISQVNEKINQSLAFIRKSDELLHNVNAGKSTTNIMITTIIIVIIVILLSLIAVGLLLY
B4: YK-RSV-053 (protein)
chain: QNITEEFYQSTCSAVSKGYLGALRTGWYTSVITIELSNIKENKCNGTDAKVKLIKQELDKYKNAVTDLQLLMQSTPATGSGSAICSGVAVSKVLHLEGEVNKIKSALLSTNKAVVSLSNGVSVLTFKVLDLKNYIDKQLLPILNKQSCSIPNIETVIEFQQKNNRLLEITREFSVNAGVTTPVSTYMLTNSELLSLINDMPITNDQKKLMSNNVQIVRQQSYSIMSIIKEEVLAYVVQLPLCGVIDTPCWKLHTSPLCTTNTKEGSNICLTRTDRGWYCDNAGSVSFFPQAETCKVQSNRVFCDTMNSRTLPSEVNLCNVDIFNPKYDCKIMTSKTDVSSSVITSLGAIVSCYGKTKCTASNKNRGIIKTFSNGCDYVSNKGVDTVSVGNTLYYVNKQEGQSLYVKGEPIINFYDPLVFPSDEFDASISQVNEKINQSLAFIRKSDELLHNVNAGKSTTNIMITTIIIVIIVILLSLIAVGLLLY
B5: YK-RSV-033 (protein)
chain: QNITEEFYQSCCSAVSKGYLGALRTGWYTSVITIELSNIKENKCNGTDAKVKLIKQELDKYKNAVTDLQLLMQSTPATGSGSAIASGVAVSKVLHLEGEVNKIKSALLSTNKAVVSLSNGVSVLTFKVLDLKNYIDKQLLPILNKQSCSIPNIETVIEFQQKNNRLLEITREFSVNAGVTTPVSTYMLTNSELLSLINDMPITNDQKKLMSNNVQIVRQQSYSIMSIIKEEVLAYVVQLPLYGVIDTPCWKLHTSPLCTTNTKEGSNICLTRTDRGWYCDNAGSVSFFPQAETCKVQSNRVFCDTMNSRTLPSEVNLCNVDIFNPKYDCKIMTSKTDVSSSVITSLGAIVSCYGKTKCTASNKNRGIIKTFSNGCDYVSNKGVDTVSVGNTLYYVNKQEGQSLYVKCEPIINFYDPLVFPSDEFDASISQVNEKINQSLAFIRKSDELLHNVNAGKSTTNIMITTIIIVIIVILLSLIAVGLLLY

How the values were obtained:
RSV F antibody (11A9) = assay: Binding of epitope II of RSV F antigen mutants by flow cytometry; details: binding rate, 293T cells 16 h after mRNA-LNP transfection
Source text: (§1) To investigate whether the RSV F antigen mutants have pre-fusion epitopes, an RSV pre-F antibody (3C12) (specifically binding to the RSV pre-F epitope […]) and an RSV F antibody (11A9) (binding to pre-F and post-F epitopes II) were detected by flow cytometry in this example, and RSV F protein mutants in the pre-F conformation were expected to bind to the antibodies tested.
(§2) • 293T cells (purchased from ATCC cell bank); RSV pre-F antibody (3C12), epitope […] (Novoprotein, Cat. No.: DA101); RSV F antibody (11A9), epitope II (Novoprotein, Cat. No.: DA091); • experimental groups: mRNA vaccines corresponding to the expressed antigens in Example 3;
(§3) • (1) Cell transfection: 293T cells were seeded at 1.3×10^5 cells/well in a 24-well plate. The next day, mRNA-LNP samples (containing 300 ng of mRNA) were added directly to the cells, and the mixture was uniformly mixed. • (2) Cell collection: The cells were taken out of the incubator after 16 h of transfection, the medium was pipetted off, 500 μL of 0.1% BSA solution was pipetted to wash the medium remaining in the well plate, taking care not to resuspend the cells, and the 0.1% BSA solution was pipetted off. 500 μL of 0.1% BSA solution was added to each well, and the cells were pipetted and transferred to a 1.5 mL centrifuge tube. • (3) Centrifugation: The cells were harvested by centrifugation at 400 g for 5 min at 4° C. in the dark, and the supernatant was discarded. • (4) Straining: 50.6 μL of RSV fluorescent antibody diluent was added to each of the control sample and the test samples to resuspend the cells, and the samples were incubated at 4° C. for 2 h in the dark. • (5) Cleaning: After the incubation was completed, 500 μL of 0.1% BSA solution was added to each tube, the cells were harvested by centrifugation at 400 g for 5 min at 4° C. in the dark, and the supernatant was discarded. This operation was repeated three times. • (6) Resuspension of cells: 200 μL of 0.1% BSA solution was added to each sample, and the cells were carefully pipetted to prepare a cell suspension. • (7) Detection on flow cytometer: The […] of RSV F mutants to antibodies were measured using flow cytometry, with 1×10^4 cells detected in each measurement.
(§4) The RSV pre-F antibody (3C12) used in this example specifically binds to the RSV pre-F epitope Φ, and the RSV F antibody (11A9) binds to the pre-F and post-F epitopes II. Whether the pre-fusion conformations of the RSV F mutants are stable can be further determined by detecting the binding of the epitope Φ and the epitope II on the mutants to corresponding epitopes of antibodies 3C12 and 11A9, respectively, by flow cytometry.

[1] = system: RSV pre-F antibody (3C12); assay: Binding of epitope Φ of RSV F antigen mutants by flow cytometry; details: for RSV pre-F antibody (3C12) Epitope Φ (%): binding rate, flow cytometry, 293T cells 16 h after mRNA-LNP transfection; for Φ/II (%): ratio of epitope Φ (3C12) to epitope II (11A9) binding rate
Source text: as §1, §2, §3, §4

Molecule | RSV F antibody (11A9) Epitope II (%) (RSV F antibody (11A9)) | RSV pre-F antibody (3C12) Epitope Φ (%) [1] [%] | Φ/II (%) [1] [%]
B1 | 83.4 | 75.5 | 90.5
B2 | 61.1 | 49.8 | 81.5
B3 | 81.5 | 73.7 | 90.4
B4 | 67.0 | 40.0 | 59.7
B5 | 82.4 | 72.0 | 87.4
